Here are results for three substances from US20120058906A1.

Assay [1] concerns the target rHuman CD44/Fc Chimera, CF (R&D Systems Cat#3660-CD) (human) (UniProt P16070). Description: ECL (MSD multi-spot) titration, Fab at 0.25 uM; blank spot 6344.
For assay [2] the target is unchanged. Description: ECL (MSD multi-spot) titration, Fab at 0.00391 uM; blank spot 576.
For assay [3] the target is unchanged. Description: ECL (MSD multi-spot) titration, Fab at 0.01563 uM; blank spot 906.
For assay [4] the target is unchanged. Description: ECL (MSD multi-spot) titration, Fab at 0.0625 uM; blank spot 1738.
For assay [5] the target is unchanged. Description: MSD ECL multi-spot assay, antigen spotted on plate, Fab 0.25 uM; blank spot 3693.
In assay [6] the target is rHuman HGF R/c-MET/Fc Chimera, CF (R&D Systems Cat#358-MT/CF) (human) (UniProt P08581). Described as above.
In assay [7] the target is Recombinant Human DLL4 (R&D Systems Cat#1506-D4/CF) (human) (UniProt Q9NR61). Description: MSD ECL multi-spot assay, antigen spotted on plate, Fab […]; blank spot 1129.
Assay [8] concerns the target rHuman CD44/Fc Chimera, CF (R&D Systems Cat#3660-CD) (human) (UniProt P16070). The assay is described as above.
Assay [9] concerns the target rHuman EGF R/Fc Chimera, CF (R&D Systems Cat#344-ER) (human) (UniProt P00533). Described as above.
The target of assay [10] is rHuman ErbB2/Fc Chimera, CF (R&D Systems Cat#1129-ER) (human) (UniProt P04626). The assay is described as above.
The target in assay [11] is rHuman Erythropoietin R/Fc Chimera, CF (R&D Systems Cat#963-ER) (human) (UniProt P19235). Described as above.
Sequence of rHuman Erythropoietin R/Fc Chimera, CF (R&D Systems Cat#963-ER) (human) (P19235 25-250, change not shown): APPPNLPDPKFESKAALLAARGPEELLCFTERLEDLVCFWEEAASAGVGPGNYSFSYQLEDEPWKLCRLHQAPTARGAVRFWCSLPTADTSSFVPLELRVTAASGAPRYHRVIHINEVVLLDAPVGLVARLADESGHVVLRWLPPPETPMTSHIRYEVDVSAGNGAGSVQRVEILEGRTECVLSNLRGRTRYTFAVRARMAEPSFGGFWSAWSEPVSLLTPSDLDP
The target of assay [12] is rHuman HGF R/c-MET/Fc Chimera, CF (R&D Systems Cat#358-MT/CF) (human) (UniProt P08581). The description is as above.
Assay [13] concerns the target rHuman Notch-1/Fc Chimera, CF (R&D Systems Cat#3647-TK) (human) (UniProt P46531). The assay is described as above.
The target in assay [14] is Recombinant Human DLL4 (R&D Systems Cat#1506-D4/CF) (human) (UniProt Q9NR61). Description: ECL (MSD Multi-Spot) titration, antigen spotted on plate; Fab […]; blank spot 4357.
For assay [15], the target named is rHuman CD44/Fc Chimera, CF (R&D Systems Cat#3660-CD) (human) (UniProt P16070). The assay is described as above.
The target of assay [16] is rHuman EGF R/Fc Chimera, CF (R&D Systems Cat#344-ER) (human) (UniProt P00533). The assay is described as above.
Assay [17] has as its target rHuman ErbB2/Fc Chimera, CF (R&D Systems Cat#1129-ER) (human) (UniProt P04626). The assay is described as above.
Assay [18] addresses rHuman Erythropoietin R/Fc Chimera, CF (R&D Systems Cat#963-ER) (human) (UniProt P19235). Described as above.
In assay [19] the target is rHuman HGF R/c-MET/Fc Chimera, CF (R&D Systems Cat#358-MT/CF) (human) (UniProt P08581). The description is as above.
Assay [20] has as its target rHuman Notch-1/Fc Chimera, CF (R&D Systems Cat#3647-TK) (human) (UniProt P46531). The assay is described as above.
In assay [21] the target is Recombinant Human DLL4 (R&D Systems Cat#1506-D4/CF) (human) (UniProt Q9NR61). Description: ECL (MSD Multi-Spot) titration, antigen spotted on plate; Fab 0.0624 µM; blank spot 960.
For assay [22], the target named is rHuman CD44/Fc Chimera, CF (R&D Systems Cat#3660-CD) (human) (UniProt P16070). Described as above.
For assay [23], the target named is rHuman EGF R/Fc Chimera, CF (R&D Systems Cat#344-ER) (human) (UniProt P00533). Described as above.
Assay [24] addresses rHuman ErbB2/Fc Chimera, CF (R&D Systems Cat#1129-ER) (human) (UniProt P04626). The description is as above.
Assay [25] concerns the target rHuman Erythropoietin R/Fc Chimera, CF (R&D Systems Cat#963-ER) (human) (UniProt P19235). The description is as above.
In assay [26] the target is rHuman HGF R/c-MET/Fc Chimera, CF (R&D Systems Cat#358-MT/CF) (human) (UniProt P08581). Described as above.
The target of assay [27] is rHuman Notch-1/Fc Chimera, CF (R&D Systems Cat#3647-TK) (human) (UniProt P46531). The description is as above.
Assay [28] deals with Recombinant Human DLL4 (R&D Systems Cat#1506-D4/CF) (human) (UniProt Q9NR61). Description: ECL (MSD Multi-Spot) titration, antigen spotted on plate; Fab 0.312 µM; blank spot 1977.
Assay [29] addresses rHuman CD44/Fc Chimera, CF (R&D Systems Cat#3660-CD) (human) (UniProt P16070). The description is as above.
In assay [30] the target is rHuman EGF R/Fc Chimera, CF (R&D Systems Cat#344-ER) (human) (UniProt P00533). Described as above.
The target of assay [31] is rHuman ErbB2/Fc Chimera, CF (R&D Systems Cat#1129-ER) (human) (UniProt P04626). The assay is described as above.
Assay [32] addresses rHuman Erythropoietin R/Fc Chimera, CF (R&D Systems Cat#963-ER) (human) (UniProt P19235). The description is as above.
Assay [33] deals with rHuman HGF R/c-MET/Fc Chimera, CF (R&D Systems Cat#358-MT/CF) (human) (UniProt P08581). Described as above.
In assay [34] the target is rHuman Notch-1/Fc Chimera, CF (R&D Systems Cat#3647-TK) (human) (UniProt P46531). The assay is described as above.
The target of assay [35] is Recombinant Human DLL4 (R&D Systems Cat#1506-D4/CF) (human) (UniProt Q9NR61). Description: MSD ECL multi-spot plate, antigen immobilized; Fab 42.112 nM; blank spot 323.
For assay [36], the target named is rHuman Erythropoietin R/Fc Chimera, CF (R&D Systems Cat#963-ER) (human) (UniProt P19235). The assay is described as above.
Assay [37] addresses rHuman HGF R/c-MET/Fc Chimera, CF (R&D Systems Cat#358-MT/CF) (human) (UniProt P08581). The description is as above.
Assay [38] has as its target rHuman Notch-1/Fc Chimera, CF (R&D Systems Cat#3647-TK) (human) (UniProt P46531). The description is as above.
For assay [39], the target named is Recombinant Human DLL4 (R&D Systems Cat#1506-D4/CF) (human) (UniProt Q9NR61). Description: MSD ECL multi-spot plate, antigen immobilized; Fab 421.12 nM; blank spot 639.
Assay [40] concerns the target rHuman Erythropoietin R/Fc Chimera, CF (R&D Systems Cat#963-ER) (human) (UniProt P19235). Described as above.
For assay [41], the target named is rHuman HGF R/c-MET/Fc Chimera, CF (R&D Systems Cat#358-MT/CF) (human) (UniProt P08581). Described as above.
For assay [42], the target named is rHuman Notch-1/Fc Chimera, CF (R&D Systems Cat#3647-TK) (human) (UniProt P46531). The assay is described as above.
The target in assay [43] is rHuman Erythropoietin R/Fc Chimera, CF (R&D Systems Cat#963-ER) (human) (UniProt P19235). Description: ECL (MSD multi-spot) screen, antigen spotted on plate, Fab at 0.42 uM; blank spot 450.

On to “Fab VH1-46_IGHD2-15*01_IGHJ2*01 & L2_IGKJ1*01”, for which the ECL signal in assay [1] amounted to 23000; in assay [2], 1300; in assay [3], 3180; in assay [4] it was 6750; in [5] it was 10400; in assay [6], 5910.

For the substance “Fab VH1-46_IGHD7-27*01_IGHJ2*01 & L6_IGKJ1*01”, the ECL signal in assay [7] is 3770; in [8], 2280; in [9], 2500; in assay [10], 2450; in [11], 4130; in assay [12], 3120. Besides, the ECL signal was determined as 3950 in assay [13]; 10900 in assay [14]; 7600 in assay [15]; 7830 in assay [16]; 7580 in [17]; 9480 in assay [18]. The ECL signal is 10300 in assay [19]; 9450 in assay [20]; 2580 in assay [21]; 2110 in [22]; 2420 in [23]; 2150 in assay [24]. Also, the ECL signal in assay [25] was found to be 2680; in assay [26], 2450; in assay [27], 2350; in [28] it was 5480; in [29], 4170; in assay [30] it was 4330. The ECL signal worked out at 3660 in assay [31], 5020 in [32], 4690 in assay [33] and 4460 in assay [34].

As for “Fab VH3-23_IGHD3-10*01>1′_IGHJ3*01 & O12_IGKJ1*01”, the ECL signal in [35] came to 404 ECL signal; in [36] it was 759 ECL signal; in [37] it was 565 ECL signal; in [38], 437 ECL signal; in [39] it was 1090 ECL signal; in [40], 1300 ECL signal. Besides, the ECL signal in assay [41] is 1200 ECL signal; in assay [42], 1060 ECL signal; in [43], 1500.
